Measurements reported in article PMC12669767.
Changes are numbered by the printed parent chain. Blank lines part the entries; values can stand above or below the binder they belong to.

How the values were obtained:
[1] = target: T1, YFP-NEDD4, P46934; assay: bead binding assay, fluorescence microscopy of YFP-NEDD4 on ALFA-TXNIP beads; conditions: chain shown with the change, value is the box-plot median, n = 40 beads, lysate of HEK293T cells over-expressing YFP-NEDD4, ctrl beads est. 20, parent: est. 38, read off a plot
T1 chain: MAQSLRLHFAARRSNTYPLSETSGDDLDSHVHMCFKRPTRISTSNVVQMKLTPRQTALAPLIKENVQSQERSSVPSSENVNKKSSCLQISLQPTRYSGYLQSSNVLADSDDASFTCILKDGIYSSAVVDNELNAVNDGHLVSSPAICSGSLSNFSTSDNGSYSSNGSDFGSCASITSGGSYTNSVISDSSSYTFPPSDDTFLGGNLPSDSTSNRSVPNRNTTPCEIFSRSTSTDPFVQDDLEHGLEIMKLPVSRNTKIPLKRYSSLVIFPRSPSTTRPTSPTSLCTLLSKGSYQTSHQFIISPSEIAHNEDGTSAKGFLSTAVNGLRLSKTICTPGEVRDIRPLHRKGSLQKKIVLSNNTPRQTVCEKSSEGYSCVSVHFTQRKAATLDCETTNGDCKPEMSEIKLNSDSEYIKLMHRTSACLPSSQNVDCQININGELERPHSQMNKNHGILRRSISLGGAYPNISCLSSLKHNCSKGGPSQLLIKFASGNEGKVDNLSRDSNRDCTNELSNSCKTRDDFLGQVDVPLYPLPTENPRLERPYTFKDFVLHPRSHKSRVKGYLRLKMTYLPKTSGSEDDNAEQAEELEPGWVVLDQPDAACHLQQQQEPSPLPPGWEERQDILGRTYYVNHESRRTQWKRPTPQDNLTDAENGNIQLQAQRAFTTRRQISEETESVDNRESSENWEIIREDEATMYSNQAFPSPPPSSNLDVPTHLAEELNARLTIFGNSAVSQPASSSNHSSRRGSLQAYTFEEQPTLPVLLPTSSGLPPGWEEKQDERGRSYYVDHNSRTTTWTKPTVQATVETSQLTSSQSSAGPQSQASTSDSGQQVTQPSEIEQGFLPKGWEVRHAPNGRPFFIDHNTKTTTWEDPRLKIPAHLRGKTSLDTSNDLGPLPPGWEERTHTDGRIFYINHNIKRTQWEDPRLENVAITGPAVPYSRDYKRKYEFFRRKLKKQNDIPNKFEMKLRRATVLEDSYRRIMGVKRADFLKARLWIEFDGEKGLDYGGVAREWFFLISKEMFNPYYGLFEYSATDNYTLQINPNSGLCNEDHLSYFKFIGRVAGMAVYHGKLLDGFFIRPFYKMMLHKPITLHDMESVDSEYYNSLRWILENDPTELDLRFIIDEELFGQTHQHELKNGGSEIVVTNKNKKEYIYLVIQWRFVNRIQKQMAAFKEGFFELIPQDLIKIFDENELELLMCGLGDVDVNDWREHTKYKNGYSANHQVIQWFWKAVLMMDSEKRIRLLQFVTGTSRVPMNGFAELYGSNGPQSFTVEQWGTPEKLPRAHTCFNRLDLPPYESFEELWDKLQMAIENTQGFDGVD

[2] = target: HECW2, endogenous in HEK293T, Q9P2P5; assay: co-immunoprecipitation of ALFA-TXNIP, label-free quantitative interactome (mass spectrometry); conditions: chain shown with the change, immunoprecipitated from HEK293T cells, n = 3, read off a plot; for response (normalized abundance): abundances normalized to unspecific background binding to empty beads, scatter plot
Sequence of HECW2, endogenous in HEK293T, Q9P2P5 (Q9P2P5 whole entry): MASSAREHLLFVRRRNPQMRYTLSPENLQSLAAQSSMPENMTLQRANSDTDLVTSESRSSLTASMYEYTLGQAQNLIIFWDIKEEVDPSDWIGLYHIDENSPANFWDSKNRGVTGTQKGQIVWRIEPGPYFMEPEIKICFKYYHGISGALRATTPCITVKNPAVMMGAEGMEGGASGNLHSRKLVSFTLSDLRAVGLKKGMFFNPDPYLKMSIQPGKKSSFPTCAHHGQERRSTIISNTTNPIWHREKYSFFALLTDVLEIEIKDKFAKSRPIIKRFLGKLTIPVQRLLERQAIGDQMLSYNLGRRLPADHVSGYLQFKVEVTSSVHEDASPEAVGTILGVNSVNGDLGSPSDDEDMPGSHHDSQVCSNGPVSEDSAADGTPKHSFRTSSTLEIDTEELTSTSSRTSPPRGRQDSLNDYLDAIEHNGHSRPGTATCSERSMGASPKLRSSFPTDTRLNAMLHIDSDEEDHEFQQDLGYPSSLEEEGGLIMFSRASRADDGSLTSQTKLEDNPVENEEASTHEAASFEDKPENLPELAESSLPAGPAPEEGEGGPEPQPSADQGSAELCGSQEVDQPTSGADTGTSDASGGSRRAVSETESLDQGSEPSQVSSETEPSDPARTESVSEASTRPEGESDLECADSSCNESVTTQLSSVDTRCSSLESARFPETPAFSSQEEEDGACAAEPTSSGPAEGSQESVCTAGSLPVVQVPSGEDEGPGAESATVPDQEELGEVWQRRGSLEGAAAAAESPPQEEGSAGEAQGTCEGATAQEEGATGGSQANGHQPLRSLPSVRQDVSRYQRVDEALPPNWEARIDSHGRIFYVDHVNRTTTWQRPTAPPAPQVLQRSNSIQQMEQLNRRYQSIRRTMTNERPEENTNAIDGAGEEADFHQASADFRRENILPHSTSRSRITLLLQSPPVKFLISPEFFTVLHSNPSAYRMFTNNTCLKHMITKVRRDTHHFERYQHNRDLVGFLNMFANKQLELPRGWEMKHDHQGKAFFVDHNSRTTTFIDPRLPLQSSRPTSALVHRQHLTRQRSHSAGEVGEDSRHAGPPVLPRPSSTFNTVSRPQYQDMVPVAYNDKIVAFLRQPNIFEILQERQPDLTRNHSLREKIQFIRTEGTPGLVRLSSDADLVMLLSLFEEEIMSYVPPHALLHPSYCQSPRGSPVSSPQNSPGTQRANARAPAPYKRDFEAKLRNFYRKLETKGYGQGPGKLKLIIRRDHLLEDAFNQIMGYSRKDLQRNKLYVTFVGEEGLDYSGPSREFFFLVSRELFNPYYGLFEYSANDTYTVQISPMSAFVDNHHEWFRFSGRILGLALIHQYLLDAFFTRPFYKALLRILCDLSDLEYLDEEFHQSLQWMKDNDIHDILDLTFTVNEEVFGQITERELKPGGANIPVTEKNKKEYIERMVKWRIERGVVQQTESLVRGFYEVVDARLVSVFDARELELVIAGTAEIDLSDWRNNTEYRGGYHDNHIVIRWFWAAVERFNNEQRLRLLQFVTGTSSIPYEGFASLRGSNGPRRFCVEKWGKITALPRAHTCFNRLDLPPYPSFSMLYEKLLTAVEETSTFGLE

[3] = target: T2, NEDD4, endogenous in HEK293T, P46934; assay: as above; conditions: chain shown with the change, immunoprecipitated from HEK293T cells, n = 3, read off a plot; for response (normalized abundance): abundances normalized to unspecific background binding to empty beads, scatter plot
T2 chain: T1 chain

[4] = target: T3, NEDD4L, endogenous in HEK293T, Q96PU5; assay: as above; conditions: chain shown with the change, immunoprecipitated from HEK293T cells, n = 3, read off a plot; for response: histogram, parent: est. 1.1e10
T3 chain: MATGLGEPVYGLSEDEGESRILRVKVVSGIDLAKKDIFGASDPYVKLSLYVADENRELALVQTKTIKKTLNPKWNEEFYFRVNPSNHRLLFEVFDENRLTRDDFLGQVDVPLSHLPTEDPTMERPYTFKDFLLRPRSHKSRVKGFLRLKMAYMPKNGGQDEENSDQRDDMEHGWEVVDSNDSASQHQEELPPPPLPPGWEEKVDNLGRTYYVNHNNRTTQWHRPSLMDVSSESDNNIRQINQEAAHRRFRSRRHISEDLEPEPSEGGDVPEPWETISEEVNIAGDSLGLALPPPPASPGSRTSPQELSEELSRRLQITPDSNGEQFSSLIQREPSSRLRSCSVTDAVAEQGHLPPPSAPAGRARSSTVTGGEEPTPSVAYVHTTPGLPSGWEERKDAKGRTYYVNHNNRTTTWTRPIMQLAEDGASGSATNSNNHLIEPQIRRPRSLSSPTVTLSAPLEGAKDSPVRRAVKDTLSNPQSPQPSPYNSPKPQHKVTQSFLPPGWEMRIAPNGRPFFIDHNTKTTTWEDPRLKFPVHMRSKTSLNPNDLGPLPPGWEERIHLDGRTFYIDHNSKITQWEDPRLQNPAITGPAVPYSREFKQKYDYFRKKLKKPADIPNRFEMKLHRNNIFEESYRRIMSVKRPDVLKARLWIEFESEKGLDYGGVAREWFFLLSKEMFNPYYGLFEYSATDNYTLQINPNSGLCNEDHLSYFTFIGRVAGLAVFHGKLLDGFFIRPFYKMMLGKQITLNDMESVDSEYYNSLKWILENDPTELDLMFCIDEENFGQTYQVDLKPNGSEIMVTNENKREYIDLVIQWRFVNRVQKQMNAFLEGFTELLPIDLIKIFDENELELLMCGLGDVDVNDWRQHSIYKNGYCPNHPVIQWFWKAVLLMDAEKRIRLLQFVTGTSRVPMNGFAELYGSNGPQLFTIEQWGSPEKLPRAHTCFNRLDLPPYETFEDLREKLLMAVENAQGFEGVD

[5] = abundances normalized to unspecific background binding to empty beads

- response ([1]; printed p=0.2365 against ALFA-TXNIP): 35 A.U
- response (normalized abundance) ([2]; parent: est. 1.0e8): 1.3e+06
- other: log2 PPxY331/WT [2]: -4.1 log2
- response (normalized abundance) ([3]; parent: est. 4.5e8): 1.2e+08
- other: log2 PPxY331/WT [3]: -1.7 log2
- response [4, 5]: 6.6e+09 abundance
- other: log2 PPxY331/WT [4]: -0.7 log2
B1: ALFA-tagged TXNIP (thioredoxin interacting protein), expressed in HEK293T, Q9H3M7 PPCY331AACA (protein)
chain: MVMFKKIKSFEVVFNDPEKVYGSGEKVAGRVIVEVCEVTRVKAVRILACGVAKVLWMQGSQQCKQTSEYLRYEDTLLLEDQPTGENEMVIMRPGNKYEYKFGFELPQGPLGTSFKGKYGCVDYWVKAFLDRPSQPTQETKKNFEVVDLVDVNTPDLMAPVSAKKEKKVSCMFIPDGRVSVSARIDRKGFCEGDEISIHADFENTCSRIVVPKAAIVARHTYLANGQTKVLTQKLSSVRGNHIISGTCASWRGKSLRVQKIRPSILGCNILRVEYSLLIYVSVPGSKKVILDLPLVIGSRSGLSSRTSSMASRTSSEMSWVDLNIPDTPEAAACAMDVIPEDHRLESPTTPLLDDMDGSQDSPIFMYAPEFKFMPPPTYTEVDPCILNNNVQ

- response ([1]; printed p<0.0001 against ALFA-TXNIP): 19 A.U
- response (normalized abundance) ([2]; parent: est. 1.3e8): 80000
- response (normalized abundance) ([3]; parent: est. 5.0e8): 1e+08
- other: log2 PPxY/WT ([3]; volcano plot): -2.2 log2
- response [4, 5]: 3.8e+09 abundance
- response (normalized abundance) ([4]; abundances normalized to unspecific background binding to empty beads, scatter plot, parent: est. 1.0e10): 4e+09
- other: log2 PPxY/WT ([4]; volcano plot): -1.5 log2
B2: ALFA-tagged TXNIP (thioredoxin interacting protein), expressed in HEK293T, Q9H3M7 PPCY331AACA; PPTY375AATA (protein)
chain: B1 chain with P375A, P376A, Y378A
